According to publication PMC9010429, “Validation of a small molecule inhibitor of PDE6D-RAS interaction with favorable anti-leukemic effects” (Blood Cancer Journal, 2022):

Target: Recombinant human Rac1 (Q2-L177) (human, UniProt P63000 2-177)
Assay: AlphaScreen or HTRF; 30 nM His-Rac1 pre-incubated with compound 30 min at room temperature, then 300 nM FLAG-Tiam1, 2 nM anti-His-Eu3+, 20 nM anti-FLAG-XL665; 50 mM Hepes pH 7.6, 100 mM NaCl, 1 mM DTT, 10 mM MgCl2, 0.1% Nonidet P-40; titration of NSC23766, DW0069 or DW0254
Details: both partners purified

binding result: binds
B1: Truncated recombinant human Tiam1 (R1033-E1406) (domain or fragment)
chain: RQLSDADKLRKVICELLETERTYVKDLNCLMERYLKPLQKETFLTQDELDVLFGNLTEMVEFQVEFLKTLEDGVRLVPDLEKLEKVDQFKKVLFSLGGSFLYYADRFKLYSAFCASHTKVPKVLVKAKTDTAFKAFLDAQNPKQQHSSTLESYLIKPIQRILKYPLLLRELFALTDAESEEHYHLDVAIKTMNKVASHINEMQKIHEEFGAVFDQLIAEQTGEKKEVADLSMGDLLLHTTVIWLNPPASLGKWKKEPELAAFVFKTAVVLVYKDGSKQKKKLVGSHRLSIYEDWDPFRFRHMIPTEALQVRALASADAEANAVCEIVHVKSESEGRPERVFHLCCSSPESRKDFLKAVHSILRDKHRRQLLKTE
notes: human Tiam1, residues R1033-E1406, pTriIJ-HV vector; also called FLAG-tagged Tiam1; not shown: FLAG, N-terminal, kept
